The source of these data is US20250270343A1 (Alector, published 2025).

Assay [1] deals with T1, mouse GPNMB endogenously expressed on B16F10 cells (mouse, UniProt Q99P91 23-574).
T1 construct: whole, on cells; also called moGPNMB
T1 sequence (looked up): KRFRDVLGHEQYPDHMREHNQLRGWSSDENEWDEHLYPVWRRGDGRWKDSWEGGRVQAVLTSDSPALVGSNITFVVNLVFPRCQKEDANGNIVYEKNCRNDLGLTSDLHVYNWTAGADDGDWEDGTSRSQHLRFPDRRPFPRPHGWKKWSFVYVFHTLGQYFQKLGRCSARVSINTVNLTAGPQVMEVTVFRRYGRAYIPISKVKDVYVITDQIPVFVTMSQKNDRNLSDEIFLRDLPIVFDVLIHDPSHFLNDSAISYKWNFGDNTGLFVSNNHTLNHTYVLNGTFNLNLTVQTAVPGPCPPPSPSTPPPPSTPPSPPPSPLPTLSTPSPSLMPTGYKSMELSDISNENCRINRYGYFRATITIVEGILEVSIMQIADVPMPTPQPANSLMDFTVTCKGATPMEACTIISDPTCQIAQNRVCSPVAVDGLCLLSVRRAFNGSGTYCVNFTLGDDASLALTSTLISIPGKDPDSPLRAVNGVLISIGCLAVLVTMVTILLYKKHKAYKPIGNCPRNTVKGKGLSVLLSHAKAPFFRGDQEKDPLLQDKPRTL
As to the kind of experiment: FACS, B16F10 cells. The protocol:
Recombinant anti-GPNMB antibodies of the present disclosure were examined for their ability to bind human and/or mouse GPNMB expressed on Freestyle293-huGPNMB+ or B16F10 cells, respectively. B16F10 cells are a murine melanoma cell line from a C57BL/6J mouse that endogenously express high levels of mouse GPNMB. The antibodies were also tested for their ability to bind to a human macrophage cell line (U937 cells) engineered to express human GPNMB. Cells were harvested, plated at 100,000 cells/well in a 96-well round bottom plate, and incubated in 100 μl FACS buffer (PBS containing 2% FBS, 2 mM EDTA) containing anti-GPNMB monoclonal antibodies of the present disclosure for 30 minutes on ice. Cells were then washed and incubated in 100 ul FACS buffer containing 1 μg/ml APC-conjugated anti-human IgG secondary antibody for 30 minutes in ice. Cells were washed twice in cold FACS buffer and acquired on a BD FACS Canto. Data analysis and calculation of MFI values was performed with FlowJo (TreeStar) software version 10.0.7. […]

Assay [2] concerns the target T2, soluble human GPNMB (recombinant extracellular domain) (human, UniProt Q14956 23-498).
T2 construct: also called huGPNMB; recombinant human GPNMB extracellular domain; not shown: C-terminal polyhistidine or Avi-His tag
T2 sequence: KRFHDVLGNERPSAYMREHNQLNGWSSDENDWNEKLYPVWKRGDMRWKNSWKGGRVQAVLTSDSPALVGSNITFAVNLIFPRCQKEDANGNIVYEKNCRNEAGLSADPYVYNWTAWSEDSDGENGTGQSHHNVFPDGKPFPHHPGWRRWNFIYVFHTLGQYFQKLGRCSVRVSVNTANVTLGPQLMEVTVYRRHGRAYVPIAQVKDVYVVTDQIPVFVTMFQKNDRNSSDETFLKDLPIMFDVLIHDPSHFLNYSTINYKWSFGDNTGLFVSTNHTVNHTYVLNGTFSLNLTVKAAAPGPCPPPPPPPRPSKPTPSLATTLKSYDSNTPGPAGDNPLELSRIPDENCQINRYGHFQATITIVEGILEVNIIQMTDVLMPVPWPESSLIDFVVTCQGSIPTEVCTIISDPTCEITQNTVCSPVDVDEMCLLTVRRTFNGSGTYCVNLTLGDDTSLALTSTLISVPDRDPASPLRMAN
Nature of the assay: SPR Carterra, Ab immobilized. The protocol: (§1) Binding kinetics of human anti-GPNMB IgG1 antibodies of the present disclosure to human, cynomolgus, and mouse GPNMB were evaluated using a Carterra LSA instrument (Carterra, Salt Lake City, UT). […] A HC200M sensor chip (Carterra) was activated using the single channel flow cell with a 7-minute injection of a 1:1:1 mixture of 100 mM MES pH 5.5, 100 mM sulfo-NHS, 400 mM EDC (all reconstituted in MES pH 5.5; 100 μl of each mixed in vial immediately before running assay). After switching to the multi-channel array flow cell, the antibodies were injected over the activated chip in a 96-spot array for 15 minutes. The remaining unconjugated active groups on the chip were then blocked by injecting 1M Ethanolamine pH 8.5 (Carterra) for 7 minutes using the single channel flow cell.
(§2) After priming with running buffer (HBS-EP+, Teknova) with 0.5 mg/ml BSA (Sigma), the immobilized anti-GPNMB antibodies were tested for their ability to bind to several forms of recombinant GPNMB extracellular domain, including human, cynomolgus, and mouse orthologs as described above. Estimates of affinity were generated by injecting each analyte over the entire antibody array using the single channel flow cell. GPNMB analytes were diluted to 2.5, 7.4, 22, 67, 200, and 600 nM in running buffer, and injected in serial from lowest to highest concentration without regeneration. Two buffer blanks were run between each series (one species per series). Data were processed and analyzed using Kinetics high-throughput kinetics analysis software (Carterra).

The target of assay [3] is T3, soluble cynomolgus GPNMB (recombinant extracellular domain) (cynomolgus, UniProt Q14956 23-499 (human entry), limits assumed).
T3 chain: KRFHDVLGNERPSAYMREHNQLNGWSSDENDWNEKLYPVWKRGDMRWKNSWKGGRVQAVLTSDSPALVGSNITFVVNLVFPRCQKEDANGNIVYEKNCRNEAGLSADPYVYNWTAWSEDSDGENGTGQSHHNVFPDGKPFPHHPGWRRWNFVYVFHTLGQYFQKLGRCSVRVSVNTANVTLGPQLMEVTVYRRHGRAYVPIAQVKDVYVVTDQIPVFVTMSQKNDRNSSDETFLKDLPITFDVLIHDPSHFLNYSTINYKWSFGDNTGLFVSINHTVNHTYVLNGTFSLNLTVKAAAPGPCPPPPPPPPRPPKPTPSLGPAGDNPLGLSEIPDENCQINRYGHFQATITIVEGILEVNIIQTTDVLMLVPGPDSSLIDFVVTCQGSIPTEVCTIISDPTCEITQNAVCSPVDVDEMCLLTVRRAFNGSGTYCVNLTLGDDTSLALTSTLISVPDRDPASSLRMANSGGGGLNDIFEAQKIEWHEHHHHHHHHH
Nature of the assay: SPR Carterra, Ab immobilized. The protocol:
as §1, §2

B1: anti-GPNMB antibody GPN-42 (antibody, human IgG1, V domains shown)
VH: DVKLVESGEDLVKPGGSLKLSCAASGFTFSSYAMSWVRQTPEKRLEWVAYISSGGDYIYYADTVKGRFTISRDNARNTLYLQMSSLKSEDTAMYYCTRDRYYDYDVRDYYTMDYWGQGTSVTVSS
VL: DVMMTQTPLSLPVSLGDQASISCRSSQSLVHSNGNTYLHWFLQKPGQSPKLLIFRVSNRFSGVPDRFSGRGSGTDFTLKISRVEAEDLGVYFCSQTTHVPRTFGGGTTLEIK
notes: chimeric
In the case of B1, the “MFI fold over background” value in assay [1] turned out to be 2.6 fold. Moreover, in assay [2], the dissociation constant Kd (usually the free concentration of one partner at which half of the binding sites on the other are occupied at equilibrium, for simple one-to-one binding) turned out to be 6.1 nM; the dissociation rate constant (koff) (usually the first-order rate constant of dissociation) was determined as 8.3e-05 s⁻¹; the kon – broadly, the second-order rate constant of association – is 14000 M⁻¹ s⁻¹.

B2: anti-GPNMB antibody GPN-43 (antibody, human IgG1, V domains shown)
VH: EVQLQQSGPELVKPGASVKISCKASGYTFTDYYMNWVRQSHGKSLEWIGDINPYHGGSTYNQKIKVKATLTVDKSSSTAYMELRSLTSEDSAVYYCARNWPYFDYWGQGTTLTVSS
VL: DIQMTQSPASLSASVGETVTITCRASENIYSFLVWYQQKQGKSPQLLVYNAKTLAEGVPSRFSGSGSGTQFSLKISSLQPEDFGSYYCQHHFGTPPYTFGGGTKLEIK
notes: chimeric
With B2, the “MFI fold over background” value in assay [1] turned out to be 1.6 fold. Also, in assay [2], the Kd was 111 nM, the dissociation rate constant (koff) came to 0.002 s⁻¹ and the kon was 18000 M⁻¹ s⁻¹.

B3: anti-GPNMB antibody GPN-41 (antibody, human IgG1, V domains shown)
VH: QLQLQQSGTEVVKPGASVKIPCKASGYAFSSYWMNWVKQRPGKGLEWIGQIYPGDGDTNDNGKFEGKATLTVDKSSNTAYIQLSSLTSEDSAVYFCARSPLHLRGSMDYWGQGTSVTVSS
VL: SIVMTQTPKFLLVSAGDRVTITCKASQSVSNDVAWFQQKPGQSPELLIYSASNRYTGVPDRFTASGYGTDFTFTISAVQAEDLAVYFCQQNYYSPFTFGGGTRLEIK
notes: chimeric
On to B3, for which, in assay [1], the “MFI fold over background” value was 15 fold. Further, in assay [2], the Kd was found to be 0.441 nM, the koff is 8.2e-05 s⁻¹ and the on-rate (kon) is 200000 M⁻¹ s⁻¹.

B4: anti-GPNMB antibody GPN-65 (antibody, human IgG1, V domains shown)
VH: QLQLQQSGTEVVKPGASVKIPCKASGYAFSSYWMNWVKQRPGKGLEWIGQIYPGDGDTNDNGKFEGKATLTVDKSSNTAYIQLSSLTSEDSAVYFCARSPLHLRGSMDYWGQGTSVTVSS
VL: SIVMTQTPKFLLVSAGDRVTITCKASQSVSNDVAWFQQKPGQSPELLIYSASNRYTGVPDRFTGSGYGTDFTFTISTVQAEDLAVYFCQQNYYSPFTFGGGTRLEIK
notes: chimeric
For B4, the “MFI fold over background” value in assay [1] came to 6.9 fold. For the same molecule, in assay [2], the equilibrium dissociation constant (Kd) came out at 0.49 nM, the off-rate constant (koff) was found to be 0.0001 s⁻¹ and the kon stood at 210000 M⁻¹ s⁻¹.

B5: anti-GPNMB antibody GPN-48 (antibody, human IgG1, V domains shown)
VH: QVQLQQSGPELVKPGASVKLSCRASGYGFSSFWMNWVKQRPGKGLEWIGRIYPGKGDTLYNGKFKDKATLTADESSSTAYMQLSSLTSEDSAVYFCARSIYYYDYWYFDVWDTGTTVTVSS
VL: DIVMTQSHKFMSTSVGDRVNITCKASQDVNSAIAWYQQKPGQSPKLLIYSASYRFIGVPDRFTGSGSGTGFTFTISSVQAEDLAVYYCQQHYTTPLTFGAGTKLELK
notes: chimeric
Turning to B5, in assay [2], the equilibrium dissociation constant (Kd) is 1.1 nM, the dissociation rate constant (koff) worked out at 0.00037 s⁻¹ and the kon turned out to be 330000 M⁻¹ s⁻¹.

B6: anti-GPNMB antibody GPN-38 (antibody, human IgG1, V domains shown)
VH: QVQLQQPGAELVRPGTSVRLSCKASGYTFTSYWIHWVKQRPGRGLEWIGVIDPSDSYTNYNQQFNVKATLTVDTSSSAAYMQLSSLTSEDSAVYYCARGLITAVNWYFDVWGTGTTVTVSS
VL: DIQMTQSPASLSTSVGEIVTITCRASENIYSYLTWYQQKQGKSPQLLVYNAKTLAEGVPSRFSGSGSGTQFSLKINSLQPEDFGTYYCQHHYGTPLTFGSGTKLEIK
notes: chimeric
On to B6, for which the “MFI fold over background” value in assay [1] came to 5.1 fold. In addition, in assay [2], the equilibrium dissociation constant (Kd) was found to be 4.92 nM, the off-rate constant (koff) turned out to be 0.00053 s⁻¹ and the kon is 110000 M⁻¹ s⁻¹.

B7: anti-GPNMB antibody GPN-52 (antibody, human IgG1, V domains shown)
VH: DVQLQESGPGLVKPSQTVFLTCTVTGISITTGNYRWSWIRQFPGNKLEWIGYIYYSGTITYNPSLTSRITITRDTPKNEFFLEMNSLTAEDTATYYCARDLTHWYFDVWGTGTTVTVSS
VL: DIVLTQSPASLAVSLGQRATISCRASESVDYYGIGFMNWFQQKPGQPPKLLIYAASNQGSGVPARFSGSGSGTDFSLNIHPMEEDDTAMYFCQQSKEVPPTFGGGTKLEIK
notes: chimeric
Consider B7, for which, in assay [1], the “MFI fold over background” value was found to be 3.4 fold. For the same molecule, in assay [2], the dissociation constant Kd was found to be 37.9 nM, the dissociation rate constant (koff) stood at 0.0032 s⁻¹ and the association rate constant (kon) came out at 86000 M⁻¹ s⁻¹. In assay [3], the Kd was 40.1 nM, the koff came out at 0.0036 s⁻¹ and the on-rate constant (kon) is 90000 M⁻¹ s⁻¹.

B8: anti-GPNMB antibody GPN-61 (antibody, human IgG1, V domains shown)
VH: DVQLQESGPGLVKPSQTVFLTCTVTGISITTGNYRWSWIRQFPGNKLEWIGYIYYSGTITYNPSLTSRTTITRDTPKNQFFLEMSSLTAEDTATYFCARDLRHWYFDVWGTGTTVTVSS
VL: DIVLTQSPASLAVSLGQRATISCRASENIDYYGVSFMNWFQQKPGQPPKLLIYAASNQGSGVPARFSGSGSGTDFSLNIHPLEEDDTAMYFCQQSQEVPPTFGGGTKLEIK
notes: chimeric
As to B8, in assay [2], the Kd was determined as 50.1 nM, the koff amounted to 0.0035 s⁻¹ and the kon came out at 71000 M⁻¹ s⁻¹. In assay [3], the dissociation constant Kd worked out at 47.9 nM, the koff stood at 0.0041 s⁻¹ and the kon turned out to be 86000 M⁻¹ s⁻¹.

B9: anti-GPNMB antibody GPN-35 (antibody, human IgG1, V domains shown)
VH: EVQLVESGGGSVRPGRSLKLSCAAAGFTFSDYYMTWVRQAPTKGLEWVASINHDGGGTYYRDSVKGRFTISRDNARSSLYLQMDSLRSEDTGTYYCTTRAGWHWGQGVMVTVSS
VL: DIQMTQSPASLSASLGETVSIECLASEDIYNYLTWYQQKPGKSPQVLIYSASGLQDGVPSRFSGSGSGRQYSLKINGLESEDAATYFCLQDSEYPLTFGSGTKLEIK
notes: chimeric
With B9, the “MFI fold over background” value in assay [1] came to 15.4 fold. In assay [2], the Kd turned out to be 21 nM, the koff turned out to be 0.0015 s⁻¹ and the kon came out at 71000 M⁻¹ s⁻¹.
